Measurements published in the Immune Epitope Database (IEDB).
Each block holds one sequence with its values, some of them ahead of it.

Legend:
HLA-B*48:01 = assay: IEDB peptide-MHC binding, purified MHC/direct/fluorescence; filed as Kd, often an IC50 or EC50 that approximates it; ≥ and ≤ were set here for values at or beyond the usual limits of such assays; settings: source organism: Influenza A virus (A/Hong Kong/514/97(H5N1))
HLA-B*40:01 = assay: as above; settings: source organism: Influenza A virus (A/Hong Kong/514/97(H5N1))
HLA-C*08:02 = assay: as above; settings: source organism: Influenza A virus (A/Hong Kong/1074/1999(H9N2))
HLA-A*69:01 = assay: as above; settings: source organism: Influenza A virus (A/Hong Kong/514/97(H5N1))
HLA-A*02:01 [1] = assay: as above; settings: source organism: Influenza A virus (A/Hong Kong/514/97(H5N1))
HLA-B*57:01 = assay: as above; settings: source organism: Influenza A virus (A/Hong Kong/514/97(H5N1))
HLA-B*07:02 [2] = assay: as above; settings: source organism: Influenza A virus (A/Hong Kong/514/97(H5N1))
HLA-B*46:01 = assay: as above; settings: source organism: Influenza A virus (A/Hong Kong/514/97(H5N1))
HLA-B*27:05 = assay: as above; settings: source organism: Influenza A virus (A/Hong Kong/514/97(H5N1))
HLA-B*08:01 [3] = assay: as above; settings: source organism: Influenza A virus H3N2
HLA-B*15:01 [4] = assay: as above; settings: source organism: Influenza A virus (A/Hong Kong/514/97(H5N1))
HLA-A*03:01 [5] = assay: as above; settings: source organism: Influenza A virus (A/Hong Kong/514/97(H5N1))
HLA-A*31:01 = assay: as above; settings: source organism: Influenza A virus (A/Hong Kong/514/97(H5N1))
HLA-B*58:01 = assay: as above; settings: source organism: Influenza A virus (A/Hong Kong/514/97(H5N1))
HLA-B*15:17 = assay: IEDB peptide-MHC binding, purified MHC/competitive/fluorescence; filed as Kd, often an IC50 or EC50 that approximates it; ≥ and ≤ were set here for values at or beyond the usual limits of such assays; settings: source organism: Influenza A virus (A/Hong Kong/1074/1999(H9N2))
HLA-A*11:01 [6] = assay: as above; settings: source organism: Influenza A virus (A/Hong Kong/1074/1999(H9N2))
HLA-A*26:02 = assay: IEDB peptide-MHC binding, purified MHC/direct/fluorescence; filed as Kd, often an IC50 or EC50 that approximates it; ≥ and ≤ were set here for values at or beyond the usual limits of such assays
HLA-A*30:02 = assay: IEDB peptide-MHC binding, purified MHC/competitive/radioactivity; filed as Kd, often an IC50 or EC50 that approximates it; ≥ and ≤ were set here for values at or beyond the usual limits of such assays; settings: source organism: Dengue virus 1 Brazil/97-11/1997
HLA-B*15:01 [7] = assay: as above; settings: source organism: Dengue virus 1 Brazil/97-11/1997
HLA-A*24:02 = assay: IEDB peptide-MHC binding, purified MHC/competitive/fluorescence; ≥ and ≤ were set here for values at or beyond the usual limits of such assays; settings: source organism: Variola virus
HLA-A*02:01 [8] = assay: as above
HLA-B*07:02 [9] = assay: as above
HLA-A*11:01 [10] = assay: as above; settings: source organism: Variola virus
HLA-B*15:01 [11] = assay: as above
HLA-A*03:01 [12] = assay: as above; settings: source organism: Variola virus
HLA-A*02:01 [13] = assay: IEDB peptide-MHC binding, purified MHC/competitive/radioactivity; filed as Kd, often an IC50 or EC50 that approximates it; ≥ and ≤ were set here for values at or beyond the usual limits of such assays; settings: source organism: Homo sapiens
HLA-A*02:01 [14] = assay: IEDB peptide-MHC binding, purified MHC/competitive/radioactivity; ≥ and ≤ were set here for values at or beyond the usual limits of such assays
HLA-B*08:01 [15] = assay: IEDB peptide-MHC binding, purified MHC/competitive/fluorescence; ≥ and ≤ were set here for values at or beyond the usual limits of such assays; settings: source organism: Zaire ebolavirus
HLA-A*26:01 = assay: IEDB peptide-MHC binding, purified MHC/direct/fluorescence; filed as Kd, often an IC50 or EC50 that approximates it; ≥ and ≤ were set here for values at or beyond the usual limits of such assays; settings: source organism: Giardia lamblia ATCC 50803
[16] = source organism: Zaire ebolavirus

Sequence: VSDGGPNLY
- Kd (HLA-B*48:01): ≥ 20 µM
- Kd (HLA-B*40:01): ≥ 20 µM
- Kd (HLA-C*08:02): 0.086 µM
- Kd (HLA-A*69:01): ≥ 20 µM
- Kd (HLA-A*02:01 [1]): ≥ 20 µM
- Kd (HLA-B*57:01): 16.7 µM
- Kd (HLA-B*07:02 [2]): ≥ 20 µM
- Kd (HLA-B*46:01): ≥ 20 µM
- Kd (HLA-B*27:05): ≥ 20 µM
- Kd (HLA-B*08:01 [3]): ≥ 20 µM
- Kd (HLA-B*15:01 [4]): 2.99 µM
- Kd (HLA-A*03:01 [5]): ≥ 20 µM
- Kd (HLA-A*31:01): ≥ 20 µM
- Kd (HLA-B*58:01): 0.553 µM
- Kd (HLA-B*15:17): 0.192 µM
- Kd (HLA-A*11:01 [6]): ≥ 20 µM

Sequence: SVKKDLISY
- Kd (HLA-A*26:02; source organism: dengue virus type 3): 0.002 µM
- Kd (HLA-A*30:02): 0.0261 µM
- Kd (HLA-B*15:01 [7]): 0.00596 µM

Sequence: KVFLPNPAF
- IC50 (HLA-A*24:02): 9.77 µM
- IC50 (HLA-A*02:01 [8]; source organism: Variola virus): 55.1 µM
- IC50 (HLA-B*07:02 [9]; source organism: Variola virus): ≥ 143 µM
- IC50 (HLA-A*11:01 [10]): 40.5 µM
- IC50 (HLA-B*15:01 [11]; source organism: Variola virus): 21 µM
- IC50 (HLA-A*03:01 [12]): 64.8 µM

- Kd (HLA-A*02:01 [13]): 2.71 µM
- IC50 (HLA-A*02:01 [14]; source organism: Homo sapiens): ≥ 20 µM
Sequence: ARDPHSGHFV

Sequence: QMVSSVTFI
- IC50 (HLA-A*02:01 [14]; source organism: Rhinovirus A): 0.2 µM

Sequence: GGRRTRREA
- IC50 (HLA-B*07:02 [9]; [16]): ≥ 120 µM
- IC50 (HLA-B*08:01 [15]): ≥ 223 µM

Sequence: GLMHNQDGL
- IC50 (HLA-A*02:01 [8]; [16]): 1.58 µM
- IC50 (HLA-B*07:02 [9]; [16]): ≥ 81.9 µM
- IC50 (HLA-B*15:01 [11]; [16]): 51.6 µM

- IC50 (HLA-A*02:01 [14]; source organism: Homo sapiens): 0.0794 µM
Sequence: SLADTNSLAV

Sequence: ITSGHSWAY
- Kd (HLA-A*26:02; source organism: Giardia lamblia ATCC 50803): 0.034 µM
- Kd (HLA-A*26:01): 0.028 µM
